Residue numbers refer to the chain shown, from its start.
Key:
[1] = molecular target: T1, FcγRIIa R type extracellular domain with C-terminal His tag (human, UniProt P12318 34-217); experiment: SPR; ratio of KD values, reference IL6R-G1d/IL6R-L
T1 construct: extracellular domain; also called FcgRIIaR; not shown: His tag at the C terminus
T1 sequence (looked up): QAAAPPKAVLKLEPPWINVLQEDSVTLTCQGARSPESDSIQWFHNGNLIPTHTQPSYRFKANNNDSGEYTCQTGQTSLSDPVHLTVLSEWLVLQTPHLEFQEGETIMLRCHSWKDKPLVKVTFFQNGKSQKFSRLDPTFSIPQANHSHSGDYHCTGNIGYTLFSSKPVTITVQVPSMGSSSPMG

[2] = molecular target: T2, FcγRIIb extracellular domain with C-terminal His tag (human, UniProt P31994 43-217); experiment: SPR; ratio of KD values, reference IL6R-G1d/IL6R-L
T2 construct: extracellular domain; also called FcgRIIb; not shown: His tag at the C terminus
T2 sequence (looked up): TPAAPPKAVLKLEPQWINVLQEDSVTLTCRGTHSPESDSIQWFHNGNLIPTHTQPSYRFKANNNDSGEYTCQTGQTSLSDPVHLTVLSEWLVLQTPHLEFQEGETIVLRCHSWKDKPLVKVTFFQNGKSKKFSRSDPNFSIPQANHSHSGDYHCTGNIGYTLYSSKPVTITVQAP

[3] = molecular target: T3, human FcγRIa extracellular domain with C-terminal His tag (human, UniProt P12314 16-292); experiment: SPR, antibody captured, FcgR analyte
T3 construct: Whole entry named; also called FcgRIa
T3 sequence (P12314 16-292): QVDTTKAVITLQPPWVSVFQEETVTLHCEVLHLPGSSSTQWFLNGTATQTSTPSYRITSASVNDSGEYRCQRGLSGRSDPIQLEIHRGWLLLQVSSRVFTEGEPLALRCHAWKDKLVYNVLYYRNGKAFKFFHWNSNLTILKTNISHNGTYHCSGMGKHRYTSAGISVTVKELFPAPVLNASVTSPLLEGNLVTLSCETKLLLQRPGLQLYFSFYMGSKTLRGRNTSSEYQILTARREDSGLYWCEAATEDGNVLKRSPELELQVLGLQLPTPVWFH

[4] = molecular target: T4, human FcγRIIa R type extracellular domain with C-terminal His tag (human, UniProt P12318 34-217); experiment: SPR, antibody captured, FcgR analyte
T4 construct: extracellular domain; also called FcgRIIaR
T4 sequence (looked up): T1 sequence (looked up)

[5] = molecular target: T5, human FcγRIIa H type extracellular domain with C-terminal His tag (human, UniProt P12318 34-217); experiment: SPR, antibody captured, FcgR analyte
T5 construct: extracellular domain; also called FcgRIIaH
T5 sequence (looked up): T1 sequence (looked up) with R134H

[6] = molecular target: T6, human FcγRIIb extracellular domain with C-terminal His tag (human, UniProt P31994 43-217); experiment: SPR, antibody captured, FcgR analyte
T6 construct: extracellular domain; also called FcgRIIb
T6 sequence (looked up): T2 sequence (looked up)

[7] = molecular target: T7, human FcγRIIIa V type extracellular domain with C-terminal His tag (human, UniProt P08637 17-208); experiment: SPR, antibody captured, FcgR analyte
T7 construct: extracellular domain; also called FcgRIIIaV
T7 sequence (P08637 17-208 F176V): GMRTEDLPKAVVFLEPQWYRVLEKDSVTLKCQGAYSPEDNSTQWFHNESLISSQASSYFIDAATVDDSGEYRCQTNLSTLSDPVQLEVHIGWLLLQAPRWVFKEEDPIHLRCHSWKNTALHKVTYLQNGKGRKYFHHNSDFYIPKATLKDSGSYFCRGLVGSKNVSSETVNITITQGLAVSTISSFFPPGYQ

[8] = molecular target: T3, human FcγRIa extracellular domain with …; experiment: SPR, KD of IL6R-G1d/IL6R-L divided by KD of variant
[9] = molecular target: T4, human FcγRIIa R type extracellular …; experiment: as above
[10] = molecular target: T5, human FcγRIIa H type extracellular …; experiment: as above
[11] = molecular target: T6, human FcγRIIb extracellular domain with …; experiment: as above
[12] = molecular target: T7, human FcγRIIIa V type extracellular …; experiment: as above
[13] = molecular target: T8, Human IgA (recombinant, H (WT)-IgA1 / L (WT)) (human); experiment: SPR (Biacore T200), antibody on Protein A/G, hIgA analyte, 37C; pH 5.8, 3 µM Ca; 1:1 binding model
T8 construct: used as the antigen (analyte); also called hIgA
T8 sequence (VH, as listed by the source): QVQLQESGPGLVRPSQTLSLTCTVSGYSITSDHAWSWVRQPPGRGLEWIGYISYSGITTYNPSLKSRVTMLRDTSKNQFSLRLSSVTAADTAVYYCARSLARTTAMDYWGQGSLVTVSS
Protocol: (§1) The hIgA-binding activities (dissociation constant KD (M)) of the antibodies isolated in (1-3) were assessed using Biacore T200 (GE Healthcare). Measurements were performed using a 0.05% tween20, 20 mmol/L ACES, 150 mmol/L NaCl (pH 7.4 or pH 5.8) solution containing 3 μM or 1.2 mM CaCl₂, or a 0.05% tween20, 20 mmol/L ACES, 150 mmol/L NaCl (pH 8.0) solution containing 0.1 μM or 10 mM CaCl₂ as a running buffer.
(§2) An appropriate amount of recombinant Protein A/G (Thermo Scientific) was immobilized onto a Sensor chip CMS (GE Healthcare) by an amino coupling method, and the antibody was allowed to bind thereto. Then, an appropriate concentration of hIgA (described in (1-1)) was injected as an analyte and allowed to interact with the antibody on the sensor chip. The measurement was carried out at 37° C. After measurement, 10 mmol/L glycine-HCl (pH 1.5) was injected to regenerate the sensor chip. From the measurement result, the dissociation constant KD (M) was calculated by curve fitting analysis and equilibrium analysis using Biacore T200 Evaluation Software (GE Healthcare).

[14] = molecular target: T8, Human IgA (recombinant, H (WT)-IgA1 / L …); experiment: SPR (Biacore T200), antibody on Protein A/G, hIgA analyte, 37C; pH 7.4, 3 µM Ca; 1:1 binding model
Protocol: as §1, §2

[15] = molecular target: T8, Human IgA (recombinant, H (WT)-IgA1 / L …); experiment: SPR (Biacore T200), antibody on Protein A/G, hIgA analyte, 37C; pH 8.0, 10 mM Ca; 1:1 binding model
Protocol: as §1, §2

[16] = molecular target: T8, Human IgA (recombinant, H (WT)-IgA1 / L …); experiment: SPR (Biacore T200), antibody on Protein A/G, hIgA analyte, 37C; pH 5.8, 1.2 mM Ca; 1:1 binding model
Protocol: as §1, §2

[17] = molecular target: T8, Human IgA (recombinant, H (WT)-IgA1 / L …); experiment: SPR (Biacore T200), antibody on Protein A/G, hIgA analyte, 37C; pH 7.4, 1.2 mM Ca; 1:1 binding model
Protocol: as §1, §2

[18] = molecular target: T8, Human IgA (recombinant, H (WT)-IgA1 / L …); experiment: SPR (Biacore T200), antibody on Protein A/G, hIgA analyte, 37C; pH 8.0, 0.1 µM Ca; 1:1 binding model
Protocol: as §1, §2

[19] = molecular target: T8, Human IgA (recombinant, H (WT)-IgA1 / L …); experiment: SPR (Biacore T200), antibody on Protein A/G, hIgA analyte, 37C; pH 5.8, 3 µM Ca; Steady State Affinity
Protocol: as §1, §2

[20] = molecular target: T8, Human IgA (recombinant, H (WT)-IgA1 / L …); experiment: SPR (Biacore T200), antibody on Protein A/G, hIgA analyte, 37C; pH 7.4, 3 µM Ca; Steady State Affinity
Protocol: as §1, §2

[21] = molecular target: T8, Human IgA (recombinant, H (WT)-IgA1 / L …); experiment: SPR (Biacore T200), antibody on Protein A/G, hIgA analyte, 37C; pH 5.8, 1.2 mM Ca; Steady State Affinity
Protocol: as §1, §2

[22] = molecular target: T8, Human IgA (recombinant, H (WT)-IgA1 / L …); experiment: SPR (Biacore T200), antibody on Protein A/G, hIgA analyte, 37C; pH 7.4, 1.2 mM Ca; 1:1 binding model; pH 7.4, 1.2 mM Ca; 37 C; 1:1 binding model
Protocol: as §1, §2

[23] = molecular target: T9, mouse FcγRI (mouse, UniProt P26151 25-297, limits assumed); experiment: SPR (Biacore), method of Reference Example 2
T9 construct: also called mFcγRI; mFc γ RI
T9 sequence (looked up): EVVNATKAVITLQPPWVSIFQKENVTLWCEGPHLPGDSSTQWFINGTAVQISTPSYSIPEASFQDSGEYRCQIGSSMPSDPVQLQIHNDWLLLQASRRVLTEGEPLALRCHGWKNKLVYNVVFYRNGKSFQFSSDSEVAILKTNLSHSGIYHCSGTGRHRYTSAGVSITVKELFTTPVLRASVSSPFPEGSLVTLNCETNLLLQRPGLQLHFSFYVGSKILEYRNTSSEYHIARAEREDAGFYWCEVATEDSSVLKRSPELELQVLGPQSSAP
Protocol: (§3) The binding activities of these antibodies to the mouse FcγRs were evaluated by the method of Reference Example 2.

[24] = molecular target: T10, mouse FcγRIV (mouse, UniProt A0A0B4J1G0 21-203); experiment: SPR (Biacore), method of Reference Example 2
T10 construct: also called mFcγRIV; mFc γ RIV
T10 sequence: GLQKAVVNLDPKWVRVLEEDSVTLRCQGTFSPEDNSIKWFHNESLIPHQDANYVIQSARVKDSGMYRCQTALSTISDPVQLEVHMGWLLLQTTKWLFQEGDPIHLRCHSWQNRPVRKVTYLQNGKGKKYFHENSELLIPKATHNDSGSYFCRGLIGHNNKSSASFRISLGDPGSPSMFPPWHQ
Protocol: as §3

B1: IL6R-P587/IL6R-L (antibody, human IgG1, kappa)
heavy: QVQLQESGPGLVKPSETLSLTCAVSGHSISHDHAWSWVRQPPGEGLEWIGFISYSGITNYNPSLQGRVTISRDNSKNTLYLQMNSLRAEDTAVYYCARSLARTTAMDYWGEGTLVTVSSASTKGPSVFPLAPSSKSTSGGTAALGCLVKDYFPEPVTVSWNSGALTSGVHTFPAVLQSSGLYSLSSVVTVPSSSLGTQTYICNVNHKPSNTKVDKKVEPKSCDKTHTCPPCPAPDLLGGDSVFLFPPKPKDTLMISRTPEVTCVVIDVAEEDGEVKFNWYVDGVEVHNAKTKPREEQYNSTYRVVSVLTVLHQDWLNGKEYKCKVSNKALPAPIEKTISKAKGQPREPQVYTLPPSRDELTKNQVSLTCLVKGFYPSDIAVEWESNGQPENNYKTTPPVLDSDGSFFLYSKLTVDKSRWQQGNVFSCSVMHEALHNHYTQKSLSLSP
light: not shown
notes: human IgG1
In the case of B1, the “KD of G1d for FcgRIIaR/KD of Each Variant for FcgRIIaR” value [1] is reported as 1.4 and the “KD of G1d for FcgRIIb/KD of Each Variant for FcgRIIb” value [2] is reported as 256.

B2: IL6R-G1dGSS/IL6R-L (antibody, human IgG1, kappa)
heavy: B1 heavy with D235E, D240P, I266V, A269S, E270H, G273P, A329G, A332S, P333S
light: not shown
For B2, the Kd [3] was 0.33 nM, the Kd [4] was 1400 nM and the Kd [5] was 1200 nM. The Kd [6] was 2400 nM, the Kd [7] was 1600 nM and the “Relative FcgRIa-binding Activity” value [8] was 0.97. The “Relative FcgRIIaR-binding Activity” value [9] was 0.79, the “Relative FcgRIIaH-binding Activity” value [10] was 0.517 and the “Relative FcgRIIb-binding Activity” value [11] was 0.9. The “Relative FcgRIIIaV-binding Activity” value [12] was 0.231.

B3: GA1-IgG1 (antibody, V domains shown)
VH: EVQLVQSGAEVKKPGSSVKVSCKASGGTFSSYAISWVRQAPGQGLEWMGGIIPIFGTANYAQKFQGRVTITADESTSTAYMELSSLRSEDTAVYYCARVAPGNWGSPYFDYWGQGTLVTVSS
VL: DIQMTQSPSSLSASVGDRVTITCRASQSIEDDLAWYQQKPGKAPKLLIYEASSLQSGVPSRFSGSGSGTDFTLTISSLQPEDFATYYCQQRDSSPLTFGQGTKVEIKR
With B3 the Kd [13] was 150 nM, the Kd [14] was 190 nM and the Kd [15] was 100 nM. The Kd [16] was 140 nM, the Kd [17] was 150 nM and the Kd [18] was 220 nM.

B4: GA2-IgG1 (antibody, V domains shown)
VH: QVQLVQSGAEVKKPGSSVKVSCKASGGTFSSYAISWVRQAPGQGLEWMGGIIPIFGTANYAQKFQGRVTITADESTSTAYMELSSLRSEDTAVYYCARPRWETAISSDAFDIWGQGTMVTVSS
VL: B3 VL with E30S, A34N, S53N, R91H, D92S
Binder B4 has a Kd [17] of 39 nM, a Kd [19] of 5000 nM and a Kd [20] of 6700 nM. For the same binder, the Kd [21] was 4000 nM and the kon [22] was 400000 M⁻¹ s⁻¹.

B5: VH3/L (WT)-mIgG1-mF44 (antibody)
heavy: QVQLQESGPGLVKPSETLSLTCAVSGHSISHDHAWSWVRQPPGEGLEWIGFISYSGITNYNPSLQGRVTISRDNSKNTLYLQMNSLRAEDTAVYYCARSLARTTAMDYWGEGTLVTVSSAKTTPPSVYPLAPGSAAQTNSMVTLGCLVKGYFPEPVTVTWNSGSLSSGVHTFPAVLQSDLYTLSSSVTVPSSTWPSETVTCNVAHPASSTKVDKKIVPRDCGCKPCICTVPEVSSVFIFPPKPKDVLTITLTPKVTCVVVDISKDDPEVQFSWFVDDVEVHTAQTQPREEQFNSTFRSVSELPIMHQDWLNGKEFKCRVNSADFPAPIEKTISKTKGRPKAPQVYTIPPPKEQMAKDKVSLTCMITDFFPEDITVEWQWNGQPAENYKNTQPIMDTDGSYFVYSKLNVQKSNWEAGNTFTCSVLHEGLHNHHTEKSLSHSPGK
light: not shown
B5: no binding [23]; no binding [24].

B6: VH3/L (WT)-mIgG1 (antibody)
heavy: B5 heavy with D323A
light: not shown
notes: mouse IgG1 constant region
B6: no binding [23]; no binding [24].

B7: VH3/L (WT)-mIgG1-mF46 (antibody)
heavy: B5 heavy with S235D
light: not shown
B7: no binding [23]; no binding [24].
